Reference: paper PMC3581573 (2013)

Target: Recombinant Flag-tagged human PRMT5 (Homo sapiens (Human), UniProt O14744)
Experiment: anti-Flag pulldown with immunoblot

Sequence of Recombinant Flag-tagged human PRMT5 (O14744 whole entry): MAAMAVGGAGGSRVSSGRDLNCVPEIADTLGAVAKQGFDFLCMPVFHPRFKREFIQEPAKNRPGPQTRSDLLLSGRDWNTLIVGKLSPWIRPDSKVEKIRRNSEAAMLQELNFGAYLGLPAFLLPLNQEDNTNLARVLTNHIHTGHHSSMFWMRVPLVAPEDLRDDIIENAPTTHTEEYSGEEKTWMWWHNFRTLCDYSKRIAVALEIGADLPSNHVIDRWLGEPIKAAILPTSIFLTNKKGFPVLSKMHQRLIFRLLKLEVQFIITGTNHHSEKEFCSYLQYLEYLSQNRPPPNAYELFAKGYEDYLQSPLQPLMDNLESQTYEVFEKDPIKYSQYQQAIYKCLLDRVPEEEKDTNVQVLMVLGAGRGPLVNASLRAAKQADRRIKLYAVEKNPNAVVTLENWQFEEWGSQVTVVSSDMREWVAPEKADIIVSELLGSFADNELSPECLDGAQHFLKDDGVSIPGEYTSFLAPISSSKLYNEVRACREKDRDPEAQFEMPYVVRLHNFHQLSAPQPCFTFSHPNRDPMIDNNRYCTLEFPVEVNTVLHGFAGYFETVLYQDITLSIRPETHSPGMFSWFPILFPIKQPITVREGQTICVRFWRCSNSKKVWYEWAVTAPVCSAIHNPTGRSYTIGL

binding result: binds
B1: Recombinant Xenopus laevis MEP50 alone (protein)
chain: MSKGSAWGRPVTAPACMEVQIGAVRYRRDGALLLAASSLSSRTWGGSIWVFKDPEGAPNESLCTAGVQTEAGVTDVAWVSEKGILVASDSGAVELWEILEKESLLVNKFAKYEHDDIVKTLSVFSDGTQAVSGGKDFSVKVWDLSQKAVLKSYNAHSSEVNCVAACPGKDTIFLSCGEDGRILLWDTRKPKPATRIDFCASDTIPTSVTWHPEKDDTFACGDETGNVSLVNIKNPDSAQTSAVHSQNITGLAYSYHSSPFLASISEDCTVAVLDADFSEVFRDLSHRDFVTGVAWSPLDHSKFTTVGWDHKVLHHHLPSEGRTENLIATKAED
